Biological target: MASP-2-T1 (aa 1-414) (human) (UniProt O00187)
Test: ELISA, antibody titrated on truncated human MASP-2 T1 (aa 1-414)

benchmark antibody narsoplimab
EC50 (read off the curve): 0.01 µg/mL
